Assay results taken from paper PMC6154995, “Heme-dependent Inactivation of 5-Aminolevulinate Synthase from Caulobacter crescentus” (Scientific Reports, 2018).

B1: 5-aminolevulinate synthase from Caulobacter crescentus, heme form (red form) (enzyme)
chain: not shown
notes: 5-aminolevulinate synthase (ALAS) of Caulobacter crescentus CB15, gene CC_1355, 408 residues, predicted mass 44,273 Da; gene PCR-amplified from genomic DNA; Same polypeptide as m1; also called cALAS; red form of cALAS; source: E. coli BL21(DE3) pLysS, pET-28b, purified (HisTrap FF Crude, Mono Q; second, reddish-brown eluate of the anion exchange column)
B2: 5-aminolevulinate synthase from Caulobacter crescentus, PLP form (yellow form) (enzyme)
chain: not shown
modifications: pyridoxal 5'-phosphate (PLP), predicted to bind to the ε-amino group of Lys248
notes: 5-aminolevulinate synthase (ALAS) of Caulobacter crescentus CB15, gene CC_1355, 408 residues, predicted mass 44,273 Da; gene PCR-amplified from genomic DNA; Same polypeptide as m2; also called cALAS; C. crescentus ALAS; source: E. coli BL21(DE3) pLysS, pET-28b, purified (HisTrap FF Crude, Mono Q; first, yellow eluate of the anion exchange column)

Target: the molecule itself
Test: SEC + native gel or EMSA; data not shown; purified yellow (PLP) and red (heme) fractions of recombinant cALAS; oligomeric state in solution; conditions not given

Row | Protein | stoichiometry N
1 | B1 | 2
2 | B2 | 2
